Earlier results on one substance are cited in publication PMC8353491.

The target of this data set is Ubc9 (Homo sapiens) (UniProt P63279).
Chain of UniProt P63279 (P63279 2-158): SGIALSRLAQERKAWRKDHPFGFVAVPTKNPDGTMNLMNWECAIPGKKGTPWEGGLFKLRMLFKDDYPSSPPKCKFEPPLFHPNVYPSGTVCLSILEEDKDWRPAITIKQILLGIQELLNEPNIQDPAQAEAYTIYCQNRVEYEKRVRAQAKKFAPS

A word on the Kd: it is the constant that tells how readily two partners part at equilibrium. In the case of SUMO1 (from UniProt P63165), the Kd was 82 nM.
